Measurements published in article PMC5762833, “Direct Molecular Fishing of New Protein Partners for Human Thromboxane Synthase” (Acta Naturae, 2017).

T1: Human thromboxane synthase (TBXAS1) (human, UniProt P24557 1-533)
T1 construct: thromboxane synthase (TBXAS1, CYP5A1), human, recombinant; Covalently immobilised on CNBr-Sepharose 4B (fishing) or on a CM5 chip (SPR); also used as analyte; also called CYP5A1
T1 sequence (looked up): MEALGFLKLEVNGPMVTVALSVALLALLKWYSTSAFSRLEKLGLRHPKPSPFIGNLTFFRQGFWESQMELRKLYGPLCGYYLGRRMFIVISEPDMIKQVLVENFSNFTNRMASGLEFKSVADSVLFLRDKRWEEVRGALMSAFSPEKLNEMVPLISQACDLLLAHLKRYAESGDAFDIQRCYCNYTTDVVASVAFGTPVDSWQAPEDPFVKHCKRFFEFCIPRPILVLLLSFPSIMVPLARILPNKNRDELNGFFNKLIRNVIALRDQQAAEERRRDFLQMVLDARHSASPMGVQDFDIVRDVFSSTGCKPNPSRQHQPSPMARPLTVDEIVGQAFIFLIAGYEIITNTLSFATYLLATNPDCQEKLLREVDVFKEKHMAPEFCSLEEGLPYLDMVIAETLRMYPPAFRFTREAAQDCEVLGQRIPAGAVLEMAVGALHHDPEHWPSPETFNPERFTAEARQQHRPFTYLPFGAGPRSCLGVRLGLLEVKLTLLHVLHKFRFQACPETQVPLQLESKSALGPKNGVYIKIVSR


Legend:
[1] = biological target: T1, Human thromboxane synthase (TBXAS1); test: SPR; as a2, with isatin added to the analyte samples at a final concentration of 100 μM and incubated for 15 min; conditions: both partners purified
[2] = biological target: T1, Human thromboxane synthase (TBXAS1); test: SPR; Biacore 3000; TBXAS1 amine-coupled to a CM5 chip (about 7,500 RU); analytes 50 nM to 5 μM injected for 10 min at 5 μL/min; control channel without protein; conditions: both partners purified

fold decrease in koff with 100 μM isatin against no isatin [1] [fold] | fold increase in affinity with 100 μM isatin against no isatin [1] [fold] | fold increase in kon with 100 μM isatin against no isatin [1] [fold] | Kd [2] [nM] | fold difference of koff against TBXAS1•CYP11B2 (CYP2E1 the slower) [2] [fold] | fold difference of kon against TBXAS1•CYP11B2 (CYP2E1 the slower) [2] [fold] | Binder
2.5 | 5 | 2 | 430 | 15 | 10 | 4-nitrophenol-2-hydroxylase (CYP2E1), recombinant (enzyme, UniProt P05181 1-493, looked up, cytochrome P450 2E1, recombinant; also called cytochrome P450 2E1) MSALGVTVALLVWAAFLLLVSMWRQVHSSWNLPPGPFPLPIIGNLFQLELKNIPKSFTRLAQRFGPVFTLYVGSQRMVVMHGYKAVKEALLDYKDEFSGRGDLPAFHAHRDRGIIFNNGPTWKDIRRFSLTTLRNYGMGKQGNESRIQREAHFLLEALRKTQGQPFDPTFLIGCAPCNVIADILFRKHFDYNDEKFLRLMYLFNENFHLLSTPWLQLYNNFPSFLHYLPGSHRKVIKNVAEVKEYVSERVKEHHQSLDPNCPRDLTDCLLVEMEKEKHSAERLYTMDGITVTVADLFFAGTETTSTTLRYGLLILMKYPEIEEKLHEEIDRVIGPSRIPAIKDRQEMPYMDAVVHEIQRFITLVPSNLPHEATRDTIFRGYLIPKGTVVVPTLDSVLYDNQEFPDPEKFKPEHFLNENGKFKYSDYFKPFSTGKRVCAGEGLARMELFLLLCAILQHFNLKPLVDPKDIDLSPIHIGFGCIPPRYKLCVIPRS
 |  |  | 690 |  |  | aldosterone synthase (CYP11B2) (enzyme, UniProt P19099 25-503, looked up, aldosterone synthase (CYP11B2), mitochondrial cytochrome P450, recombinant) GTRAARAPRTVLPFEAMPQHPGNRWLRLLQIWREQGYEHLHLEMHQTFQELGPIFRYNLGGPRMVCVMLPEDVEKLQQVDSLHPCRMILEPWVAYRQHRGHKCGVFLLNGPEWRFNRLRLNPDVLSPKAVQRFLPMVDAVARDFSQALKKKVLQNARGSLTLDVQPSIFHYTIEASNLALFGERLGLVGHSPSSASLNFLHALEVMFKSTVQLMFMPRSLSRWISPKVWKEHFEAWDCIFQYGDNCIQKIYQELAFNRPQHYTGIVAELLLKAELSLEAIKANSMELTAGSVDTTAFPLLMTLFELARNPDVQQILRQESLAAAASISEHPQKATTELPLLRAALKETLRLYPVGLFLERVVSSDLVLQNYHIPAGTLVQVFLYSLGRNAALFPRPERYNPQRWLDIRGSGRNFHHVPFGFGMRQCLGRRLAEAEMLLLLHHVLKHFLVETLTQEDIKMVYSFILRPGTSPLLTFRAIN
